Source: patent publication US20190202914A1 (HARBOUR BIOMED SHANGHAI, published 2019)
Substitutions are numbered along the chain they refer to. Numbers in names are those of the source.

T1: human CTLA-4 expressed on cells (293-hCTLA-4 cells; CTLA-4-expressing CHO-K1 cells) (human, UniProt P16410 36-223)
T1 construct: also called CD152; cell-expressed CTLA-4
T1 sequence: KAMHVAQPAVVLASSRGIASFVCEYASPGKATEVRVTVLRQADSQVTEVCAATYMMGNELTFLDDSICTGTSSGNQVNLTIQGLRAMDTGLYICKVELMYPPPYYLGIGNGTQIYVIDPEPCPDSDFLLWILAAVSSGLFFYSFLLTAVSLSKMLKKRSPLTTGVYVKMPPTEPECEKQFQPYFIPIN

T2: cyno CTLA-4 expressed on 293 cells (293-cynoCTLA-4 cells) (cyno, UniProt G7PL88 36-223)
T2 construct: also called cynomolgus CTLA-4
T2 sequence: T1 sequence with S14N, L106M

T3: Recombinant human CTLA-4-his protein (CT4-H5229, Acro Bio) (human, UniProt P16410 36-161)
T3 construct: extracellular domain; Bought protein; also called Human CTLA-4^ECD-his; not shown: his tag
T3 sequence (looked up): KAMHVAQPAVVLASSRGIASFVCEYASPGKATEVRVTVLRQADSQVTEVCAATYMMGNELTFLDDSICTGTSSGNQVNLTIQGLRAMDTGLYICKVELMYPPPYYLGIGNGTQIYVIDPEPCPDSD

B1: CL3 (antibody, human IgG1, V domains shown)
VH: EVQLVEIGGGEIQPGGSLRLSCAASGFNVSKNYMSWVRQAPGKGLEWVSVIYSGGGTEYAASVKGRFNISRDSSKNMLYLQMNNLRAEDTAVYYCARAVPRPHGTDIWGQGTMVTVSS
notes: Human heavy-chain-only antibody (HCAb): two heavy chains, no light chain
B2: CL5-dPTM′ (antibody, human IgG1, V domains shown)
VH: EVQLVESGGGLIQPGGSLRLSCAVSGFTVSKNYMSWVRQAPGKGLEWVSVVYSGGSKTYADSVKGRFTISRDNSKNTLYLQMNSLRAEDTAVYYCARAVPHSPSSFDIWGQGTMVTVSS
notes: HCAb variant with PTM removal
B3: CL5′-dPTM′ (antibody, human IgG1, V domains shown)
VH: B2 VH
notes: HCAb variant with PTM removal
B4: CL30-dPTM′ (antibody, human IgG1, V domains shown)
VH: EVQLVESGGGLIQPGGSLRLSCAASGFTVSRIYMSWVRQAPGKGLEWVSVIYSGGSIYYADSVKGRFTISRDSSKNTVYLQMNSLRAEDTAVYYCARAVPHAPSNFDKWGQGTLVTVSS
notes: HCAb variant with PTM removal
B5: CL22-dPTM′ (antibody, human IgG1, V domains shown)
VH: B2 VH with V24A, S30R, K31N, V51I, K57I, S102A, S105A
notes: HCAb variant with PTM removal
B6: CL25-dPTM′ (antibody, human IgG1, V domains shown)
VH: B4 VH with R31S, I32N, I57T, S73N, V78L, A102S, N105A, K108R
notes: HCAb variant with PTM removal
B7: CL11-dPTM′ (antibody, human IgG1, V domains shown)
VH: B4 VH with H101S, N105S, K108I, L114M
notes: HCAb variant with PTM removal
B8: CL25-dPTM (antibody, human IgG1, V domains shown)
VH: B4 VH with S7T, R31S, I32N, I57T, S73N, V78L, N83S, A102S, N105A, K108R
notes: HCAb variant with PTM removal
B9: CL25 (antibody, human IgG1, V domains shown)
VH: EVQLVETGGGLIQPGGSLRLSCAASGFTVSSNYMSWVRQAPGKGLEWVSVIYSGGSTYYADSVKGRFTISRDNSKNTLYLQMSNLTAEDTAVYYCARAVPHSPSAFDRWGQGTLVTVSS
notes: Human heavy-chain-only antibody (HCAb): two heavy chains, no light chain; also called clone25
B10: CL22-dPTM (antibody, human IgG1, V domains shown)
VH: EVQLVETGGGLIQPGGSLRLSCAVSGFTVRNNYMSWARQVPGKGLEWVSVIYSGGSITYADSVKGRFIISRDNSKNTLYLQMNGLRAEDTAVYYCARAVPHAPSAFDIWGQGTMVTVSS
notes: HCAb variant with PTM removal
B11: CL5-dPTM (antibody, human IgG1, V domains shown)
VH: B2 VH with V5A, S7T, A40V, S49A, T68I, I69L, K75D, S84N
notes: HCAb variant with PTM removal
B12: CL5′-eA-dPTM′ (antibody, human IgG1, V domains shown)
VH: B2 VH
notes: HCAb variant with PTM removal and the eA (S239D, I332E) Fc
B13: CL22 (antibody, human IgG1, V domains shown)
VH: B10 VH with K75N
notes: Human heavy-chain-only antibody (HCAb): two heavy chains, no light chain; also called clone 22
B14: CL5 (antibody, human IgG1, V domains shown)
VH: B2 VH with V5A, S7T, T28N, A40V, S49A, T68I, I69L, K75D, S84N
notes: Human heavy-chain-only antibody (HCAb): two heavy chains, no light chain; also called HCAb clone 5
B15: CL30 (antibody, human IgG1, V domains shown)
VH: B4 VH with V5E, S7T, G10D, A23T, T28N, K64R, K75T, T90S, L114R
notes: Human heavy-chain-only antibody (HCAb): two heavy chains, no light chain; also called clone 30

Experiments:
[1] = biological target: T1, human CTLA-4 expressed on cells …; test: flow cytometry (MFI) on 293 cells expressing human CTLA-4, Alexa 488 anti-human (H+L) detection
Description: (§1) The culture medium was aspirated, and the cells were washed twice with HBSS (Hanks Balanced Salt Solution, Invitrogen). The cells were treated with enzyme-free cell dissociation solution (Versene solution, Invitrogen) and collected. The cells were then washed twice with HBSS, cell counts were determined, and cells were resuspended with HBSS at 2×10⁶ cells/mL. BSA was added to the cell suspension to a final concentration of 1%, and the cells were blocked for 30 minutes on ice and then washed twice with HBSS. The cells were collected after centrifugation and resuspended in FACS buffer (HBSS+1% BSA, v/v) at 2×10⁶ cells/mL. 100 μL of the cell suspension were then added to each well of a 96-well plate. 100 μL of purified anti-CTLA-4 antibodies from Example 2 or control antibodies were added to each well of the 96-well plate and incubated for 1 hour on ice, wherein the heavy chain and light chain of the Ipilimumab analogue had amino acid sequences of SEQ ID NO.: 199 and SEQ ID NO.: 200, respectively. Cells were washed twice with FACS buffer, and 100 μL of Alexa 488-labeled anti-human (H+L) antibody (Invitrogen) were added to the 96-well plate and incubated for 1 hour on ice. The samples were washed three times with FACS buffer, and 100 μL of fixation buffer (containing 4% paraformaldehyde, v/v) were added to each well and incubated for 10 minutes. The cells were then washed twice with FACS buffer and resuspended in 100 μL of FACS buffer.

[2] = biological target: T2, cyno CTLA-4 expressed on 293 cells …; test: flow cytometry (MFI) on 293 cells expressing cynomolgus CTLA-4, Alexa 488 anti-human (H+L) detection
Description: as §1

[3] = biological target: T1, human CTLA-4 expressed on cells …; test: flow cytometry (MFI) on 293F-hCTLA-4 cells, Alexa 488 anti-human (H+L) detection
Description: Cell-based binding assay was performed to determine the binding ability of the anti-CTLA-4 antibody variants with PTM removal to human CTLA-4. The assay procedure was similar to that described in Example 3. […] Cells were centrifuged and blocked in blocking buffer (containing 2% BSA, pH 7.4 PBS buffer, w/v) at 1×10⁶ cells/mL for 15 minutes at 37° C. 200 μL of cells were dispensed to each well of the 96-well plates (2×10⁵ cells/well). The plates were centrifuged and the supernatants were discarded. The cells were resuspended in 100 μL of anti-CTLA-4 antibodies prepared in blocking buffer. The plates were incubated at 4° C. for 90 minutes and washed twice. After the blocking buffer was discarded, the cells were resuspended in 100 μL of Alexa 488-labeled anti-human (H+L) antibody (1:500, Invitrogen) and incubated at 4° C. for 1 hour. The cells were washed and resuspended in 200 μL of blocking buffer. The mean fluorescence intensity (MFI) was determined using FACS Calibur (BD).

[4] = biological target: T1, human CTLA-4 expressed on cells …; test: cell-based blocking assay, flow cytometry: % blocking of biotin labeled B7.1 binding to 293-hCTLA-4 cells
[5] = biological target: T3, Recombinant human CTLA-4-his protein …; test: SPR, Biacore T200, antibody immobilised, CTLA-4-his injected, 1:1 model
Description: Dissociation constants were determined by Biacore T200 (GE Healthcare), following the specifications of the instrument provided by the manufacturer. Briefly, 1 μg/mL diluted anti-CTLA-4 antibodies in 10 mM NaOAc (pH 5.0, sigma) were immobilized on flow cell of a Series S CMS sensor chip. Remaining active ester groups were blocked with 1 M ethanolamine (pH 8.5). With HBS-EP+ as the running buffer, recombinant human CTLA-4-his (CT4-H5229, AcroBio) and cynoCTLA-4-his proteins (CT4-05227, AcroBio) with five serial diluted concentrations were injected over flow cells at 30 μL/min with the association time of 180 s. Buffer flow was maintained for dissociation for 600s.

[6] = biological target: T1, human CTLA-4 expressed on cells …; test: flow cytometry on 293F-hCTLA-4 cells
[7] = biological target: T1, human CTLA-4 expressed on cells …; test: cell-based blocking assay, flow cytometry: % blocking of biotinylated B7.1 ECD-Fc binding to 293-hCTLA-4 cells
Description: Cell-Based Receptor-Ligand Binding assay was performed to determine the ability of the anti-CTLA-4 antibodies to block the binding of CTLA-4 to its ligands B7.1. Recombinant B7.1^ECD-Fc protein (B71-H5259, Acro Bio) was biotinylated using EZ-LINK NHS-PEG12-Biotin (Thermo Scientific#21312) according to the manufacturer's instruction. Biotinylated B7.1^ECD-Fc protein was concentrated and free label removed by using Amicon centrifugal filter (10 kDa cut off). The extracellular domain of B7.1 corresponded to amino acids Val35-Asn242 of Uniprot database protein P33681.
The culture medium was aspirated, and the cells were washed twice with PBS. The cells were treated with enzyme-free cell dissociation solution (Versene solution, Invitrogen) and collected. Dissociation solution was neutralized by the addition of 8 mL of culture medium, and cell counts were determined. Cells were centrifuged at 300 g for 5 minutes and resuspended in blocking buffer (containing 2% BSA, pH 7.4 PBS buffer, w/v) at 1×10⁶ cells/mL. The cells were blocked for 15 minutes at 37° C. Meanwhile, the wells of 96-well round-bottom plates were blocked with 200 μL of blocking buffer for 1 hour at 37° C. The blocking buffer was discarded, and 200 μL of cells were dispensed to each well of the 96-well plates (2×10⁵ cells/well). The plates were centrifuged at 500 g for 5 minutes, and the supernatants were discarded. The cells were resuspended in 100 μL of anti-CTLA-4 antibodies prepared in blocking buffer with varying concentrations. 100 μL of biotinylated B7.1 ECD-Fc (60 μg/mL in blocking buffer) were added to each well of 96-well plate and mixed by shaking gently. The plates were incubated at 4° C. for 90 minutes and washed twice with 200 μL blocking buffer. The blocking buffer was discarded, and the cells were resuspended in 100 μL of streptavidin-Alexa 488 solution (Invitrogen, 1:500 in blocking buffer) and incubated at 4° C. for 1 hour. The plates were washed three times with blocking buffer and added with 200 μL of blocking buffer.
The mean fluorescence intensity (MFI) was determined using FACS Calibur (BD).

Binder | EC50 (read off the curve) [1] | EC50 (read off the curve) [2] | EC50 (read off the curve) [3] | IC50 (read off the curve) [4] | further results
B1 | ~2 nM | ~1 nM | – | – | –
B2 | – | – | ~1 nM | ~7 nM | –
B3 | – | – | – | – | Kd [5]: 0.0428 nM; koff [5]: 0.000229 s⁻¹; kon [5]: 5.35e+06 M⁻¹ s⁻¹
B4 | – | – | – | – | binding result [6]: binds
B5 | – | – | – | – | binding result [6]: binds
B6 | – | – | ~1 nM | ~7 nM | –
B7 | – | – | ~1 nM | ~7 nM | –
B8 | – | – | ~1 nM | ~7 nM | –
B9 | ~2 nM | ~1 nM | – | – | –
B10 | – | – | ~1 nM | ~7 nM | –
B11 | – | – | ~1 nM | ~7 nM | –
B12 | – | – | – | – | Kd [5]: 0.014 nM; koff [5]: 7.58e-05 s⁻¹; kon [5]: 5.4e+06 M⁻¹ s⁻¹
B13 | ~2 nM | ~1 nM | – | – | IC50 (read off the curve) [7]: ~10 nM
B14 | ~2 nM | ~1 nM | – | – | IC50 (read off the curve) [7]: ~10 nM
B15 | ~2 nM | ~1 nM | – | – | IC50 (read off the curve) [7]: ~10 nM
